# Source: publication PMC4615246
# Where two headings read alike, the source gives them in different places.
# Columns and labels:
# Experiment in all cases: LacI/LacO array recruitment in cells
# LacI-CFP-sPom121 (human) [1] = target: LacI-CFP-sPom121 (human) (UniProt Q96HA1)
# LacI-CFP-Nup53 (human) = LacI-CFP-Nup53 (human) (UniProt Q8NFH5)
# LacI-CFP-Nup153 (human) = LacI-CFP-Nup153 (human) (UniProt P49790)
# LacI-CFP-Nup58 (human) = LacI-CFP-Nup58 (human) (UniProt Q9BVL2)
# LacI-CFP-Nup133 (human) = LacI-CFP-Nup133 (human) (UniProt Q8WUM0)
# Chain of LacI-CFP-Nup133 (human) (Q8WUM0 whole entry): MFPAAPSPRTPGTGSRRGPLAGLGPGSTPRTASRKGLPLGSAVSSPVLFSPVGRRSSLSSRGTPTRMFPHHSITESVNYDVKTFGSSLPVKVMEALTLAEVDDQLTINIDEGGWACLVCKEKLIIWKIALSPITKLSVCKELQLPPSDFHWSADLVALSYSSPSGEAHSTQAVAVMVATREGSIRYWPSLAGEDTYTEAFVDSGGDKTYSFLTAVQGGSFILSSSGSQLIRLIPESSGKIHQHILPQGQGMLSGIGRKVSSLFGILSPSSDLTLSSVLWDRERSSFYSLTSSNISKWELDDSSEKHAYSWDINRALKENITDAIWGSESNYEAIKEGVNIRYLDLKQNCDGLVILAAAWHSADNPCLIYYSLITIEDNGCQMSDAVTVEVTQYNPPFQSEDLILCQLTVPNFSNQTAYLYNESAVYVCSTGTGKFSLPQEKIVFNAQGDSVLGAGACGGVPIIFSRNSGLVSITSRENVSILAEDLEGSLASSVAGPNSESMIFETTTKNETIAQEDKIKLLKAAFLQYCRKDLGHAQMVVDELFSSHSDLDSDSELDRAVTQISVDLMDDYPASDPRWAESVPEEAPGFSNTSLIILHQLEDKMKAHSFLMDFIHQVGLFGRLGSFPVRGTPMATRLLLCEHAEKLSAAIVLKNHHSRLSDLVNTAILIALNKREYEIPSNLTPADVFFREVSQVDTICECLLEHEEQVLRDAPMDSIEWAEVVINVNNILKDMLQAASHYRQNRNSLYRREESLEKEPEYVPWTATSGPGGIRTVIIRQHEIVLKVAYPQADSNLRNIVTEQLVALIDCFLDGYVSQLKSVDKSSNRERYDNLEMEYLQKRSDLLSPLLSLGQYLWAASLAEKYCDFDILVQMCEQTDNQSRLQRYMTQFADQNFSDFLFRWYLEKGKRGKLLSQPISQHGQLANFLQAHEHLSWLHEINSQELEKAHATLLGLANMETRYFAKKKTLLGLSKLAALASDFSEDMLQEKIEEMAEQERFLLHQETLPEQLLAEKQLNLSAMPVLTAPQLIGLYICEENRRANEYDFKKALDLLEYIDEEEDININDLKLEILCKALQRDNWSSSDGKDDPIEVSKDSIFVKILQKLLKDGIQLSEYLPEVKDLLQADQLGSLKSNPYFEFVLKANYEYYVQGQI
# LacI-CFP-Nup98 (human) = LacI-CFP-Nup98 (human) (UniProt P52948)
# LacI-CFP-Nup107 (human) = LacI-CFP-Nup107 (human) (UniProt P57740)
# LacI-CFP-Nup214 (human) [2] = target: LacI-CFP-Nup214 (human) (UniProt P35658)
# Chain of LacI-CFP-Nup214 (human) (P35658 whole entry): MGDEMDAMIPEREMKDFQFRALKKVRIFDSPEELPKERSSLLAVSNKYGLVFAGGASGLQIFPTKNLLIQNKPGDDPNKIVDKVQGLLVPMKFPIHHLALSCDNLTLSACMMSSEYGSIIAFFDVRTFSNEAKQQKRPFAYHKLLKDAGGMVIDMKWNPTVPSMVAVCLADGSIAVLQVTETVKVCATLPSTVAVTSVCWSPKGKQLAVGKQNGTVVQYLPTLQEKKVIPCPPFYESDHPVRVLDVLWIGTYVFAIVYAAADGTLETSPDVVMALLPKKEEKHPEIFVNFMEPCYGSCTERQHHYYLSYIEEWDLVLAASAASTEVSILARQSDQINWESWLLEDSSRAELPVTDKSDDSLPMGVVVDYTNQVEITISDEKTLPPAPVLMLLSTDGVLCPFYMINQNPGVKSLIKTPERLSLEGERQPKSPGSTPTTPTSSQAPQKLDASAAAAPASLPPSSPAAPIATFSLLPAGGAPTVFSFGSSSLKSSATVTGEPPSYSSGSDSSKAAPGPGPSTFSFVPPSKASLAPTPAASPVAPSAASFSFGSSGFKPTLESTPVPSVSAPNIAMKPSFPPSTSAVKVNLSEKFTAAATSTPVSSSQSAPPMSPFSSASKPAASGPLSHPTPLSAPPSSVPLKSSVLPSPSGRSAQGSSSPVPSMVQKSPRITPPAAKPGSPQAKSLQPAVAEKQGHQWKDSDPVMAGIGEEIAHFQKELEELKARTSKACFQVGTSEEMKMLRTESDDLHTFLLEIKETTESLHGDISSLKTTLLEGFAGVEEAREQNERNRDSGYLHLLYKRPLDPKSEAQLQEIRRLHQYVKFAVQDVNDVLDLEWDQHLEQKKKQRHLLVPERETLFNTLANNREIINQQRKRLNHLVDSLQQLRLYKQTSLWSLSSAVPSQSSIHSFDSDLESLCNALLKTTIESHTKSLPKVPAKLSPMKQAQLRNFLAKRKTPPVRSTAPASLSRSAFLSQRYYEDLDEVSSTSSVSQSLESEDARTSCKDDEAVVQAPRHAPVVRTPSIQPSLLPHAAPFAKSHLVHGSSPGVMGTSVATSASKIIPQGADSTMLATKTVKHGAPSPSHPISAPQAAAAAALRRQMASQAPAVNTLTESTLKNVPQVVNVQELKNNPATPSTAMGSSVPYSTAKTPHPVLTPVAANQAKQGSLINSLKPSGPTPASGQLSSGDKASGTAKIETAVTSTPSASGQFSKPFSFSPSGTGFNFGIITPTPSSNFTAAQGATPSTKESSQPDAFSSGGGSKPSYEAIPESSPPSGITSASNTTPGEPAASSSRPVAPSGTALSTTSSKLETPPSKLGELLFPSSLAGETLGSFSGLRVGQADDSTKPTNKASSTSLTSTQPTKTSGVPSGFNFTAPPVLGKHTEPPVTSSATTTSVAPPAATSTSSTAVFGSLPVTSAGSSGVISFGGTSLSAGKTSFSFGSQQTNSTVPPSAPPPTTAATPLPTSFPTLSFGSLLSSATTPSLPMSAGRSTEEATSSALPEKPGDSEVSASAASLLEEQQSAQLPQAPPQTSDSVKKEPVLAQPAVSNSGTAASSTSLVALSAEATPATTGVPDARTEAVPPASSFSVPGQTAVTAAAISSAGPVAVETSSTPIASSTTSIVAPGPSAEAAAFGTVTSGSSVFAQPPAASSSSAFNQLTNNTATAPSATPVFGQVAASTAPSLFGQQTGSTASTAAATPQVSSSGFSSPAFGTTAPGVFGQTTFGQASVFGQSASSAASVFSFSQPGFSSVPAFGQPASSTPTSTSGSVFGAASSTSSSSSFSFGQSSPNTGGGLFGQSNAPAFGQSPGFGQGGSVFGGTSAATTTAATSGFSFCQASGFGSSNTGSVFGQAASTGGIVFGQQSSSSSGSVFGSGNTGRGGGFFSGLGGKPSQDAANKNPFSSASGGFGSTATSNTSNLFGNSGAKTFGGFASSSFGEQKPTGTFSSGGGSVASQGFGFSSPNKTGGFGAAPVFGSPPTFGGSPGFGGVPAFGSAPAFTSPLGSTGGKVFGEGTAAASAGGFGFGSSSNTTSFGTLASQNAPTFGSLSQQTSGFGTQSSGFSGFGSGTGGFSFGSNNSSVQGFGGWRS
# LacI-CFP-mNup85 (mouse) = LacI-CFP-mNup85 (mouse) (UniProt Q8R480)
# LacI-CFP-Nup50 (human) = LacI-CFP-Nup50 (human) (UniProt Q9UKX7)
# LacI-CFP-Nup214 (human) [3] = target: LacI-CFP-Nup214 (human) (UniProt P35658); remark: listed apart in the source
# LacI-CFP-sPom121 (human) [4] = target: LacI-CFP-sPom121 (human) (UniProt Q96HA1); remark: listed apart in the source
# Chain of LacI-CFP-sPom121 (human) (Q96HA1 whole entry): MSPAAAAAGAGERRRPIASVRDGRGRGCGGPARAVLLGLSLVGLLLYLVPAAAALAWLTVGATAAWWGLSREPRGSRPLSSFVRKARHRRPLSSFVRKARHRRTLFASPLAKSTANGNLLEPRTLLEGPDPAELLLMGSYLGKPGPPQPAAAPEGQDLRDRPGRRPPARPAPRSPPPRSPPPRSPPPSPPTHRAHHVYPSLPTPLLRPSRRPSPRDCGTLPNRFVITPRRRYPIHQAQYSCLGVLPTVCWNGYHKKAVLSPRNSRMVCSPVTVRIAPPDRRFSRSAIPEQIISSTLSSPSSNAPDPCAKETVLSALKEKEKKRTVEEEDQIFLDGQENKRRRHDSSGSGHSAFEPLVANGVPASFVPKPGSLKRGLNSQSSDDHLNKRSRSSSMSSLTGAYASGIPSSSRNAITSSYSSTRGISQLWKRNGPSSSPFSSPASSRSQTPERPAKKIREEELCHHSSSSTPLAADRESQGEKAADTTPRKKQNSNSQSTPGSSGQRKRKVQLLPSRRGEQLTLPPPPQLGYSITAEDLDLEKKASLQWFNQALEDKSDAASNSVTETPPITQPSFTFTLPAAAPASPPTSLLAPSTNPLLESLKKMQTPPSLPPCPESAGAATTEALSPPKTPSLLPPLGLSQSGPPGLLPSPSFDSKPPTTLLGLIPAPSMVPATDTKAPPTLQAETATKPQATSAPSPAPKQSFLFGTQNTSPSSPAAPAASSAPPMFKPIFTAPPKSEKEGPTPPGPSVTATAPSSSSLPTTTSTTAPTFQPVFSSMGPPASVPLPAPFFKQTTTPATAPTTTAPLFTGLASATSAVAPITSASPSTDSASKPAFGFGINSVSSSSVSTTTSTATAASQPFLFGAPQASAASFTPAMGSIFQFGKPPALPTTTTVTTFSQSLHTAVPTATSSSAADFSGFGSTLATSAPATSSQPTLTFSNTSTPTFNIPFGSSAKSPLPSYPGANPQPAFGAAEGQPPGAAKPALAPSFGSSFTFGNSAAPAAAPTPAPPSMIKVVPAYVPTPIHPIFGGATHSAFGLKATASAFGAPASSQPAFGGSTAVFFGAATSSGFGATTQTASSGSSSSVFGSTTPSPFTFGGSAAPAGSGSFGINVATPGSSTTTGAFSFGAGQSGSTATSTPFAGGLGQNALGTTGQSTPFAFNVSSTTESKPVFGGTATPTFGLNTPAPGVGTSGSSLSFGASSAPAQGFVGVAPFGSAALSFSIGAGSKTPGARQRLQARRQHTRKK
# Chain of LacI-CFP-Nup58 (human) (Q9BVL2 whole entry): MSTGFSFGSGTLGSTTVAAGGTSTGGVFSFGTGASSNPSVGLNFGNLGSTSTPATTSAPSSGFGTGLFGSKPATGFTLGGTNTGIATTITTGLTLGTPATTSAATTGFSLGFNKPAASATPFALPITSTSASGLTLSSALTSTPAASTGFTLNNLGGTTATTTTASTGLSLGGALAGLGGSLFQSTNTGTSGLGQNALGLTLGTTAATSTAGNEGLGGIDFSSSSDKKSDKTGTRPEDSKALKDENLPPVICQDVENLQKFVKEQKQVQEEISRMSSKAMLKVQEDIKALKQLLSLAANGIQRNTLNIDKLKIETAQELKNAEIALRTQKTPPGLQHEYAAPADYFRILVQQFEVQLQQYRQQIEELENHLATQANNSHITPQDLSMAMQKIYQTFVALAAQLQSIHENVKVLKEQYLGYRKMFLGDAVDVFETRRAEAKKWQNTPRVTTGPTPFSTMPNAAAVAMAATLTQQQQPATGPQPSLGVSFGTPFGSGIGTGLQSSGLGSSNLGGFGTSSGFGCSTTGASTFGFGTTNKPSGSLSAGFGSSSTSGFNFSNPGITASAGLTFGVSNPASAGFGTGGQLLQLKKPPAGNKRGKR
substance,measurement,setting,value
ELYS (endogenous) (from UniProt Q8WYP5 1-2266) (natural protein),percent of transfected cells showing colocalization,LacI-CFP-sPom121 (human) [1],14%
"ELYS (endogenous), Q8WYP5 1-2266",percent of transfected cells showing colocalization,LacI-CFP-Nup53 (human),34%
same,percent of transfected cells showing colocalization,LacI-CFP-Nup153 (human),65%
same,percent of transfected cells showing colocalization,LacI-CFP-Nup58 (human),13%
same,percent of transfected cells showing colocalization,LacI-CFP-Nup133 (human),62%
same,percent of transfected cells showing colocalization,LacI-CFP-Nup98 (human),16%
same,percent of transfected cells showing colocalization,LacI-CFP-Nup107 (human),72%
same,percent of transfected cells showing colocalization,LacI-CFP-Nup214 (human) [2],40%
same,percent of transfected cells showing colocalization,LacI-CFP-mNup85 (mouse),9%
same,percent of transfected cells showing colocalization,LacI-CFP-Nup50 (human),37%
same,percent of transfected cells showing colocalization,LacI-CFP-Nup214 (human) [3],45%
Nup53 (endogenous) (from UniProt Q8NFH5 1-326) (natural protein),percent of transfected cells showing colocalization,LacI-CFP-sPom121 (human) [1],2%
Nup62 (endogenous) (from UniProt P37198 1-522) (natural protein),percent of transfected cells showing colocalization,LacI-CFP-sPom121 (human) [1],89%
Nup85 (endogenous) (from UniProt Q9BW27 1-656) (natural protein),percent of transfected cells showing colocalization,LacI-CFP-sPom121 (human) [1],7%
Nup93 (endogenous) (from UniProt Q8N1F7 1-819) (natural protein),percent of transfected cells showing colocalization,LacI-CFP-sPom121 (human) [1],68%
same,percent of transfected cells showing colocalization,LacI-CFP-sPom121 (human) [4],71%
Nup98 (endogenous) (from UniProt P52948 1-880) (natural protein),percent of transfected cells showing colocalization,LacI-CFP-sPom121 (human) [1],72%
same,percent of transfected cells showing colocalization,LacI-CFP-sPom121 (human) [4],74%
Nup133 (endogenous) (from UniProt Q8WUM0 1-1156) (natural protein),percent of transfected cells showing colocalization,LacI-CFP-sPom121 (human) [1],8%
"Nup214 (endogenous), P35658 1-2090 (natural protein)",percent of transfected cells showing colocalization,LacI-CFP-Nup133 (human),23%
"Nup214 (endogenous), P35658 1-2090 (natural protein; other documents disagree on this pair)",percent of transfected cells showing colocalization,LacI-CFP-Nup153 (human),6%
